Assay results taken from patent publication US20230250177A1 (INTERVET, published 2023).

T1: canine IL-22 with a C-terminal HIS tag (canine)
T1 construct: Recombinant, made in HEK-293 or CHO cells; coated on the ELISA plate; also called cIL-22-His; canine IL-22-HIS
T1 chain: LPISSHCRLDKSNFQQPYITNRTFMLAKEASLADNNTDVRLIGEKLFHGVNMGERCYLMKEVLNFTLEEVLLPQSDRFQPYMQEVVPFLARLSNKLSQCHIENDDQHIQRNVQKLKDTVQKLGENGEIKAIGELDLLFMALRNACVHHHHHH


Columns and labels:
[1] = target: biotinylated canine IL-31 (canine); test: ELISA: IL-31RA coated at 10 µg/mL, biotinylated IL-31 titrated 3-fold from 10 µg/mL, HRP-streptavidin
[2] = target: T1, canine IL-22 with a C-terminal HIS tag; test: ELISA: cIL-22-His coated at 1 µg/mL, Fezakinumab titrated from 5 µg/mL, anti-human IgG Fc-HRP
Procedure: The binding of canine IL-22 HIS to the anti-IL-22 antibody Fezakinumab was determined by ELISA as follows: […]

Molecule	EC50 [1] [µg/mL]	binding result [2]
Canine IL-31RA ECD-10His (extracellular domain of canine IL-31 receptor alpha fused to a HIS tag)	0.368	
Fezakinumab (human monoclonal anti-IL-22 antibody) (antibody, human IgG1, lambda, V domains shown, Full human heavy and light chains, marked PRIOR ART; made recombinantly in HEK-293 or CHO cells; also called Fezakinumab-mAb; Feza-mAb) VH: QVQLVQSGAEVKKPGASVKVSCKASGYTFTNYYMHWVRQAPGQGLEWVGWINPYTGSAFYAQKFRGRVTMTRDTSISTAYMELSRLRSDDTAVYYCAREPEKFDSDDSDVWGRGTLVTVSS VL: QAVLTQPPSVSGAPGQRVTISCTGSSSNIGAGYGVHWYQQLPGTAPKLLIYGDSNRPSGVPDRFSGSKSGTSASLAITGLQAEDEADYYCQSYDNSLSGYVFGGGTQLTVLG		binds
